# Data as given in article PMC5007356.
# B1: Fzy (endogenous) (natural protein)
# chain: MSQFNFVSDLQNALIMDGETRGPAPRWKKKLEASLNGSVNTTRSVLSVSYNTSFSGVQAPTKTPGKSSEGKTKKSNTTPSKTPGGGDRFIPNRAATNFELAHFLVNKDSGDKSDEENDKATSSNSNESNVQASAHKGDRQKLISEVAQVGDSKGGRILCYQNKAPAAPETHNNPLKVVYSIKTPISTKSGSRYIPTTSERILDAPDFINDYYLNLMDWSADNIVAVALGSCVYLWNAQTGNIEQLTEFEEGDYAGSLSWIQEGQILAIGNSTGAVELWDCSKVKRLRVMDGHSARVGSLAWNSFLVSSGSRDGTIVHHDVRAREHKLSTLSGHTQEVCGLKWSTDFKYLASGGNDNLVNVWSAASGGVGTATDPLHKFNDHQAAVRALAWCPWQPSTLASGGGTADRCIKFWNVNNGTLMKSVDSKSQVCSLLFSRHYKELISAHGFANNQLTIWKYPTMVKQADLTGHTSRVLQMAMSPDGSTVISAGADETLRLWNCFAPDPLASKKAVSTSKGKQSVFRQSIR
# What was measured:
# [1] = biological target: GFP-Cdc27 (Drosophila melanogaster); assay: co-IP; anti-GFP immunoprecipitation with GFP-Trap-A beads from D. mel-2 cell lysates, 2 h at 4 °C; 10 mM Tris-HCl pH 7.5, 150 mM NaCl, 0.5 mM EDTA, NP40; immunoblot; band intensities quantified in ImageJ
# [2] = biological target: GFP-Spd2 (Drosophila melanogaster); assay: as above
Molecule,co-IP efficiency [1],precipitation efficiency (percent of input co-precipitated) [2] [%]
Spd2 (endogenous) (from UniProt Q9VV79 1-1146) (natural protein),2.7e-07,
Cdc27 (endogenous) (natural protein),,4.55
Fzr (endogenous) (from UniProt O18402 1-478) (natural protein),,14.5
B1,,2.43
